Reference: PMC2706296 (Nature structural & molecular biology, 2009)

T1: Nup85 C-terminally tagged with a tandem affinity purification (TAP) tag (budding yeast (endogenous), UniProt P46673 1-744)
T1 sequence (looked up): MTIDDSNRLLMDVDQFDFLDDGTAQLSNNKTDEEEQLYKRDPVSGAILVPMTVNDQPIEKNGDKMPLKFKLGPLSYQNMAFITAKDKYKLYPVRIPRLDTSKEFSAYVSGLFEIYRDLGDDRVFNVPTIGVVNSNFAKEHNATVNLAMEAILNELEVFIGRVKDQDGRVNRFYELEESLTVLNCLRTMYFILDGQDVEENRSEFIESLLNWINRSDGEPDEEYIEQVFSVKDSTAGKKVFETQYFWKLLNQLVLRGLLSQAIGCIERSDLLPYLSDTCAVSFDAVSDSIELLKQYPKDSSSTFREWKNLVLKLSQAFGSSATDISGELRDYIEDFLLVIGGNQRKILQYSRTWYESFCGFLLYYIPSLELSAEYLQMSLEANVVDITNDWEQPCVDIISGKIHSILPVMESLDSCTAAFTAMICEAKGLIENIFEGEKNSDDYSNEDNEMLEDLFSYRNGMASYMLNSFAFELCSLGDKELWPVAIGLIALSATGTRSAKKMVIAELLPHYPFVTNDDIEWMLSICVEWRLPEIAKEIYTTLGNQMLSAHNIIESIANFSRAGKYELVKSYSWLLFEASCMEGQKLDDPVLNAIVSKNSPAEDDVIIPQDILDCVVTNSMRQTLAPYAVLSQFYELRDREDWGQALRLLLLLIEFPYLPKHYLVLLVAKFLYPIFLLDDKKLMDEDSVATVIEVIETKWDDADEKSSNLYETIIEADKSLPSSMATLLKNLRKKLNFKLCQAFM


Tests used:
Nup84 = Nup84 (budding yeast (endogenous), UniProt P52891 1-726); experiment: negative-stain EM, random conical tilt 3D reconstruction
[1] = target: T1, Nup85 C-terminally tagged with a tandem …; experiment: affinity purification with mass spectrometry

Sequence of Nup84 (P52891 whole entry): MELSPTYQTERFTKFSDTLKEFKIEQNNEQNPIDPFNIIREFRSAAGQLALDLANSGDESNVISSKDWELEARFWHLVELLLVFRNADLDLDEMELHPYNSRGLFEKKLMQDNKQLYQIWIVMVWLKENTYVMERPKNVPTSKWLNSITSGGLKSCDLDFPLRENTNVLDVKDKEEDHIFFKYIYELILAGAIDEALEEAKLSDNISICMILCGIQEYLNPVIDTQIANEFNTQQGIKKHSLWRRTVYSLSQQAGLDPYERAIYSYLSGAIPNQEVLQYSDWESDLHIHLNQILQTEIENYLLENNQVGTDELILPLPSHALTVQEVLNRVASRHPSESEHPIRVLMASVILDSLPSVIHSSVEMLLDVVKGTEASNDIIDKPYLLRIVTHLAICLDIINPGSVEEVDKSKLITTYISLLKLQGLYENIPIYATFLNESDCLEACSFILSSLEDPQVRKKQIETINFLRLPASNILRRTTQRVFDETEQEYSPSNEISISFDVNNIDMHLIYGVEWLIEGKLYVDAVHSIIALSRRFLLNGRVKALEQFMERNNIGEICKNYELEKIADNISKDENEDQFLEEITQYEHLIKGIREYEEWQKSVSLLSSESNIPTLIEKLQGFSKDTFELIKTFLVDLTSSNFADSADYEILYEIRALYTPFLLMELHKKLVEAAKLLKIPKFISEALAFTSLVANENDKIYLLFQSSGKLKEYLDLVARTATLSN

Binder | binding result (Nup84) | binding result [1]
Nup145C (natural protein, budding yeast (endogenous), UniProt P49687 606-1317, looked up) SIWGLVNEEDAEIDEDDLSKQEDGGEQPLRKVRTLAQSKPSDKEVILKTDGTFGTLSGKDDSIVEEKAYEPDLSDADFEGIEASPKLDVSKDWVEQLILAGSSLRSVFATSKEFDGPCQNEIDLLFSECNDEIDNAKLIMKERRFTASYTFAKFSTGSMLLTKDIVGKSGVSIKRLPTELQRKFLFDDVYLDKEIEKVTIEARKSNPYPQISESSLLFKDALDYMEKTSSDYNLWKLSSILFDPVSYPYKTDNDQVKMALLKKERHCRLTSWIVSQIGPEIEEKIRNSSNEIEQIFLYLLLNDVVRASKLAIESKNGHLSVLISYLGSNDPRIRDLAELQLQKWSTGGCSIDKNISKIYKLLSGSPFEGLFSLKELESEFSWLCLLNLTLCYGQIDEYSLESLVQSHLDKFSLPYDDPIGVIFQLYAANENTEKLYKEVRQRTNALDVQFCWYLIQTLRFNGTRVFSKETSDEATFAFAAQLEFAQLHGHSLFVSCFLNDDKAAEDTIKRLVMREITLLRASTNDHILNRLKIPSQLIFNAQALKDRYEGNYLSEVQNLLLGSSYDLAEMAIVTSLGPRLLLSNNPVQNNELKTLREILNEFPDSERDKWSVSINVFEVYLKLVLDNVETQETIDSLISGMKIFYDQYKHCREVAACCNVMSQEIVSKILEKNNPSIGDSKAKLLELPLGQPEKAYLRGEFAQDLMKCTYKI | binds | 
Seh1 (natural protein, budding yeast (endogenous), UniProt P53011 1-349, looked up) MQPFDSGHDDLVHDVVYDFYGRHVATCSSDQHIKVFKLDKDTSNWELSDSWRAHDSSIVAIDWASPEYGRIIASASYDKTVKLWEEDPDQEECSGRRWNKLCTLNDSKGSLYSVKFAPAHLGLKLACLGNDGILRLYDALEPSDLRSWTLTSEMKVLSIPPANHLQSDFCLSWCPSRFSPEKLAVSALEQAIIYQRGKDGKLHVAAKLPGHKSLIRSISWAPSIGRWYQLIATGCKDGRIRIFKITEKLSPLASEESLTNSNMFDNSADVDMDAQGRSDSNTEEKAELQSNLQVELLSEHDDHNGEVWSVSWNLTGTILSSAGDDGKVRLWKATYSNEFKCMSVITAQQ |  | binds
